Data as given in PMC6086839, “Elongator mutation in mice induces neurodegeneration and ataxia-like behavior” (Nature Communications, 2018).

T1: yeast Elp4 residues 66-426 (yElp4_(66-426)) (S. cerevisiae, UniProt Q02884 66-426)
T1 construct: source: purified complex
T1 sequence (looked up): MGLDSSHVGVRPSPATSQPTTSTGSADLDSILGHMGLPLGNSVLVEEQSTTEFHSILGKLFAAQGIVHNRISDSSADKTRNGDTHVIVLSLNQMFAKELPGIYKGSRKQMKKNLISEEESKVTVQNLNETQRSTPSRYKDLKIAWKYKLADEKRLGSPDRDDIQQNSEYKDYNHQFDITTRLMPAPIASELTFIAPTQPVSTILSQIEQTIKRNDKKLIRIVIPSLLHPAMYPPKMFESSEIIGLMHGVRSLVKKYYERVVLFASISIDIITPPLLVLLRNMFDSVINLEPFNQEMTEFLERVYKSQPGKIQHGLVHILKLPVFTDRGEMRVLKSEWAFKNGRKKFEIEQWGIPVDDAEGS

B1: yeast Elongator complex subunit 6 (yElp6) (natural protein, S. cerevisiae)
chain: MGSVQRQDLVLFSDQSVLPAHFFQDSNSHNLFFITHQSCTQPLWMINALVETHVLGSPSSLNESSSSMLPSSTRSHAVLASFIHEQNYFTNSLNKLKIPSNNYNVLDFLSDFIVNNIHNKPRDKILSDVLAKFSAAIQNNPTDTIVIIEQPELLLSLVSGLTCSELNNKFITPLLRQCKVLIIVSNSDIFNIDEYDASVHSSNLQNFYKSSFIKSMINLNLNPLKTGFAKDVTGSLHVCRGGAPIATSNTSLHVVENEYLYLNEKESTKLFYR
notes: Elp6, S. cerevisiae, Q04868; printed without limits (yElp456); source: purified Elp456 complex from yeast subunits

Experiments:
[1] = target: T1, yeast Elp4 residues 66-426 …; assay: co-purification (NiNTA affinity, then SEC); subunits co-expressed in E. coli; truncated complexes purified as complexes and then used for Thermofluor; settings: both partners purified
[2] = target: B1; assay: as above; settings: both partners purified

binding result [1]	binding result [2]	Binder
binds		B1
binds	binds	yeast Elp5 residues 1-270 (yElp5_(1-270)) (domain or fragment, S. cerevisiae, UniProt P38874 1-270, looked up, Elp5, yeast, residues 1-270; source: purified complex) MASSSHNPVILLKRILSLTESSPFILCLDSIAQTSYKLIQEFVHQSKSKGNEYPIVYISFETVNKPSYCTQFIDATQMDFVHLVKQIISYLPAATATQAKKHMVIIDSLNYISTEYITRFLSEIASPHCTMVATYHKDIKDENRTVIPDWNNNYPDKLTLLQFMATTIVDIDVVLTGTLDTEEVSELLNEFRIPRGLNNDIFQLRLVNKRKSGRSLEYDFIVNSNTHEYELLSTTKQEEESSSNGLETPEMLQGLTTFNLGTSNKQKLAK
